Data from patent US10428140B2, “Anti-EphA4 antibody” (EISAI R&D MANAGEMENT CO., LTD., priority 2015, dated 2019).

T1: human EphB1 (Homo sapiens, UniProt P54762)
T1 construct: a protein of the extracellular region of each human Eph receptor fused with the SEAP protein and the His tag; made in house; host or cells: Expi293F cells (culture supernatant)
T1 sequence (P54762 18-540 limits assumed): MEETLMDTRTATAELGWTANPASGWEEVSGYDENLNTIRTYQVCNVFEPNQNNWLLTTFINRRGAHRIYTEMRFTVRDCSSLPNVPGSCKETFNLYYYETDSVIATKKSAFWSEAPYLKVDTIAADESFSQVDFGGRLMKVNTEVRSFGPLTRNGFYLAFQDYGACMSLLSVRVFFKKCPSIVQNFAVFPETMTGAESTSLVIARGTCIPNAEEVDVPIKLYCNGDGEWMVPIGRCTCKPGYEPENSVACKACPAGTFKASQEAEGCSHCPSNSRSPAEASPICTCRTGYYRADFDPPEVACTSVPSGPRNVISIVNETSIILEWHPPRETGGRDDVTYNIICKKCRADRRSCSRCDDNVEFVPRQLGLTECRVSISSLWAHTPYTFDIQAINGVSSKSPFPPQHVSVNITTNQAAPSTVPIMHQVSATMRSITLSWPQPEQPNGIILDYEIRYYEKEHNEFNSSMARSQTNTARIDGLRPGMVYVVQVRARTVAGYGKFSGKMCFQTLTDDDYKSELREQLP

T2: human EphA6 (Homo sapiens, UniProt Q9UF33)
T2 construct: a protein of the extracellular region of each human Eph receptor fused with the SEAP protein and the His tag; made in house; host or cells: Expi293F cells (culture supernatant)
T2 sequence (Q9UF33 23-550 limits assumed): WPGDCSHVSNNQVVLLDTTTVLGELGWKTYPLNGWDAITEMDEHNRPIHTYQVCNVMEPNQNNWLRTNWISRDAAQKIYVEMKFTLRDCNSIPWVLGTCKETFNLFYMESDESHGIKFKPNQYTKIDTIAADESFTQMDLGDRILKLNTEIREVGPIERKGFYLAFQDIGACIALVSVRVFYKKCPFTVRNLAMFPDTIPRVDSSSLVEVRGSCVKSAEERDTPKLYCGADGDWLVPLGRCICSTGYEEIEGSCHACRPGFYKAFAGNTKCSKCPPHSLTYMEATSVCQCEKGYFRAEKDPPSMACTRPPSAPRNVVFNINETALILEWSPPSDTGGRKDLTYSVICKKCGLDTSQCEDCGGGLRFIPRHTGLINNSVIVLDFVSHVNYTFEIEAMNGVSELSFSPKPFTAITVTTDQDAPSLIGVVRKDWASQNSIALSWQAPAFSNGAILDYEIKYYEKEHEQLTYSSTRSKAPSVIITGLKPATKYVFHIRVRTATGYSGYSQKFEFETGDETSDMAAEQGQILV

B1: 155 (antibody, V domains shown)
VH: QIQLVQSGSELKKPGASVKVSCKASGYTFTDYSMHWVRQAPGQGLKWMGWINTETGEPTYADDFKGRFVFSLDTSVSTAYLQISSLKAEDTAVYYCARIPLYYYGSRYWYFDVWGQGTTVTVSS
VL: DIQMTQSPSSLSASVGDRVTITCRASENIYRNLAWYQQKPGKAPKLLLYAATNLADGVPSRFSGSGSGTDYTLTISSLQSEDFATYYCQHFWGTPWTFGQGTKVEIK
modifications: synthetic humanized antibody heavy chain variable region sequence; synthetic humanized antibody light chain variable region sequence
B2: 144 (antibody, V domains shown)
VH: QVQLVQSGSELKKPGASVKVSCKASGYTFTDYSMHWVRQAPGQGLEWMGWINTETGEPTYADDFKGRFVFSLDTSVSTAYLQISSLKAEDTAVYYCARIPLYYYGSRYWYFDVWGQGTTVTVSS
VL: DIQMTQSPSSLSASVGDRVTITCRASENIYRNLAWYQQKPGKAPQLLLYAATNLADGVPSRFSGSGSGTDYTLTISSLQPEDFATYYCQHFWGTPWTFGQGTKVEIK
modifications: synthetic humanized antibody heavy chain variable region sequence; synthetic humanized antibody light chain variable region sequence
B3: 158 (antibody, V domains shown)
VH: QVQLVQSGSELKKPGASVKVSCKASGYTFTDYSMHWVRQAPGQGLKWMGWINTETGEPTYAQGFTGRFVFSLDTSVSTAYLQISSLKAEDTAVYYCARIPLYYYGSRYWYFDVWGQGTTVTVSS
VL: DIQMTQSPSSLSASVGDRVTITCRASENIYRNLAWYQQKPGKAPQLLLYAATNLADGVPSRFSGSGSGTDYTLTISSLQPEDFATYYCQHFWGTPWTFGQGTKVEIK
modifications: synthetic humanized antibody heavy chain variable region sequence; synthetic humanized antibody light chain variable region sequence
B4: 132 (antibody, V domains shown)
VH: QIQLVQSGSELKKPGASVKVSCKASGYTFTDYSMHWVRQAPGQGLKWMGWINTETGEPTYAQGFTGRFVFSLDTSVSTAYLQISSLKAEDTAVYYCARIPLYYYGSRYWYFDVWGQGTTVTVSS
VL: EIVMTQSPATLSVSPGERATLSCRASENIYRNLAWYQQKPGQSPRLLIYAATNLADGIPARFSGSGSGTEYTLTISSLQSEDFAVYYCQHFWGTPWTFGQGTKVEIK
modifications: synthetic humanized antibody heavy chain variable region sequence; synthetic humanized antibody light chain variable region sequence
B5: 133 (antibody, V domains shown)
VH: QVQLVQSGSELKKPGASVKVSCKASGYTFTDYSMHWVRQAPGQGLEWMGWINTETGEPTYAQGFTGRFVFSLDTSVSTAYLQISSLKAEDTAVYYCARIPLYYYGSRYWYFDVWGQGTTVTVSS
VL: EIVMTQSPATLSVSPGERATLSCRASENIYRNLAWYQQKPGQSPRLLIYAATNLADGIPARFSGSGSGTEYTLTISSLQSEDFAVYYCQHFWGTPWTFGQGTKVEIK
modifications: synthetic humanized antibody heavy chain variable region sequence; synthetic humanized antibody light chain variable region sequence
B6: 134 (antibody, V domains shown)
VH: QVQLVQSGSELKKPGASVKVSCKASGYTFTDYSMHWVRQAPGQGLKWMGWINTETGEPTYAQGFTGRFVFSLDTSVSTAYLQISSLKAEDTAVYYCARIPLYYYGSRYWYFDVWGQGTTVTVSS
VL: EIVMTQSPATLSVSPGERATLSCRASENIYRNLAWYQQKPGQSPRLLIYAATNLADGIPARFSGSGSGTEYTLTISSLQSEDFAVYYCQHFWGTPWTFGQGTKVEIK
modifications: synthetic humanized antibody heavy chain variable region sequence; synthetic humanized antibody light chain variable region sequence
B7: 157 (antibody, V domains shown)
VH: QVQLVQSGSELKKPGASVKVSCKASGYTFTDYSMHWVRQAPGQGLEWMGWINTETGEPTYAQGFTGRFVFSLDTSVSTAYLQISSLKAEDTAVYYCARIPLYYYGSRYWYFDVWGQGTTVTVSS
VL: DIQMTQSPSSLSASVGDRVTITCRASENIYRNLAWYQQKPGKAPQLLLYAATNLADGVPSRFSGSGSGTDYTLTISSLQPEDFATYYCQHFWGTPWTFGQGTKVEIK
modifications: synthetic humanized antibody heavy chain variable region sequence; synthetic humanized antibody light chain variable region sequence
B8: 159 (antibody, V domains shown)
VH: QVQLVQSGSELKKPGASVKVSCKASGYTFTDYSMHWVRQAPGQGLKWMGWINTETGEPTYADDFKGRFVFSLDTSVSTAYLQISSLKAEDTAVYYCARIPLYYYGSRYWYFDVWGQGTTVTVSS
VL: DIQMTQSPSSLSASVGDRVTITCRASENIYRNLAWYQQKPGKAPQLLLYAATNLADGVPSRFSGSGSGTDYTLTISSLQPEDFATYYCQHFWGTPWTFGQGTKVEIK
modifications: synthetic humanized antibody heavy chain variable region sequence; synthetic humanized antibody light chain variable region sequence
B9: 160 (antibody, V domains shown)
VH: QIQLVQSGSELKKPGASVKVSCKASGYTFTDYSMHWVRQAPGQGLKWMGWINTETGEPTYADDFKGRFVFSLDTSVSTAYLQISSLKAEDTAVYYCARIPLYYYGSRYWYFDVWGQGTTVTVSS
VL: DIQMTQSPSSLSASVGDRVTITCRASENIYRNLAWYQQKPGKAPQLLLYAATNLADGVPSRFSGSGSGTDYTLTISSLQPEDFATYYCQHFWGTPWTFGQGTKVEIK
modifications: synthetic humanized antibody heavy chain variable region sequence; synthetic humanized antibody light chain variable region sequence

Experiments:
human EphB1 = molecular target: T1, human EphB1; experiment: Selectivity ELISA of humanized antibodies for human Eph receptor; format: binding; conditions: coated protein 1 nM
In short: (§1)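 Capture ELISA: anti-6-His coat, 1% BlockAce block, Eph ECD-SEAP-His (1 nM final, Expi293F supernatant) 1 h RT, humanized Ab 1 h RT, HRP anti-IgG 1 h RT, TMB, H2SO4 stop, A450.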

human EphA6 = molecular target: T2, human EphA6; experiment: as above; format: binding; conditions: coated protein 1 nM
In short: as §1

[1] = molecular target: T3, human EphA4 (binding to human Ephrin A5) (Homo sapiens, UniProt P54764); experiment: Human EphA4-human ligand binding inhibition ELISA of humanized antibodies (biotinylated Ephrin A5-Fc); conditions: biotinylated human Ephrin A5-Fc 0.7 nM
T3 construct: made in house; not restated for the human SEAP-His protein
T3 sequence (P54764 20-547): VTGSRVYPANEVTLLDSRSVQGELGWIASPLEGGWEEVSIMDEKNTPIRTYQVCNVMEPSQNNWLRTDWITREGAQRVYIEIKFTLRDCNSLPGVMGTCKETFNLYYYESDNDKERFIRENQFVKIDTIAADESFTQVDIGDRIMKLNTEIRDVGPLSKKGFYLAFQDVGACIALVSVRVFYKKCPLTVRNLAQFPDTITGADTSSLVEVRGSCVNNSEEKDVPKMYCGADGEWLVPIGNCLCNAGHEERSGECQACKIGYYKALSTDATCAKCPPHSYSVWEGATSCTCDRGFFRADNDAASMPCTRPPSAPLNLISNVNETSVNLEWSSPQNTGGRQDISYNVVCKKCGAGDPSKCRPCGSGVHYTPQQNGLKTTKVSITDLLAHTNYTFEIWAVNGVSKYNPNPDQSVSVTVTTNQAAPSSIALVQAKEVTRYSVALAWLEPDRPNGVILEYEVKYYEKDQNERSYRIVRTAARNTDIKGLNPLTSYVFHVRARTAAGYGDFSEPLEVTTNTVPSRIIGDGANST
In short: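 Wells coated with anti-alkaline phosphatase antibody captured human EphA4 extracellular region-SEAP-His at 10 nM. Biotinylated human Ephrin A5-Fc (0.7 nM) and serially diluted humanized antibody (0-3000 nM) were added together for 1 h at room temperature. Bound ligand was detected with HRP-streptavidin and TMBZ at A450.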

Row | Molecule | hEphB1-SEAP-: absorbance at 450 nm, percentage with respect to hEphA4-SEAP-His as 100% (human EphB1) | hEphA6-SEAP-: absorbance at 450 nm, percentage with respect to hEphA4-SEAP-His as 100% (human EphA6) | IC50 [1]
1 | B1 | 5.4% | 7.2% | 2.4 nM
2 | B2 | 5.7% | 8.1% | 3.6 nM
3 | B3 | 6.2% | 10.0% | 2.8 nM
4 | B4 | 4.8% | 9.7% | 3.1 nM
5 | B5 | 4.6% | 8.8% | 3 nM
6 | B6 | 5.1% | 9.6% | 3 nM
7 | B7 | 6.1% | 9.0% | 2.6 nM
8 | B8 | 5.3% | 7.6% | 2.6 nM
9 | B9 | 6.1% | 8.7% | 2.2 nM
